Measured values published in the supplement of paper PMC6757056.
± gives the standard deviation of the averaged measurements.

B1: library; a variant is named by its letters at N, in order (parent)
chain: GCUGUCACCGGAAUACCAGCAUCGUCUUGAUGCCCUUGGAAGUCCGGUCUGAUGAGUCCNNNNNGGACGAAACAGC

What was measured:
theophylline [1] = variants of: B1; assay: FACS-Seq fitted mean relative fluorescence mCherry/BFP without ligand (log10 relative fluorescence); higher = higher reporter protein expression; conditions: HEK293T, ligand present: no
Method in brief: (§1)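 After lentiviral transduction, HEK293T library cells bearing an mCherry ribozyme-switch reporter and an EF1α-BFP marker were enriched. They were then held for 48 h with or without ligand and sorted by mCherry/BFP into 6 bins, and each bin's genomic DNA was PCR-amplified, barcoded and MiSeq-sequenced. Fluorescence is expressed as a normalized fitted mean: the normal mean of log10(mCherry/BFP) bin counts, scaled to five spiked-in control ribozymes.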

theophylline [2] = variants of: B1; assay: normalized RNA/DNA level with ligand (relative to sTRSVctl = 100) (log10 (% of sTRSVctl)); higher = less ribozyme self-cleavage, higher mRNA level; conditions: ligand concentration (+) RNA-Seq: 5 mM, HEK293T, reporter: mCherry (pCS4076), ligand present: yes
Method in brief: (§2)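 Only sequences with at least 100 DNA reads were analyzed, from HEK293T cells transfected with 4 µg per 6-well well of ribozyme switch library plasmids 72 h before RNA extraction with EDTA. Any ligand was added 1 h before transfection. RNA level was defined as RNA over DNA reads, normalized to a spiked-in non-cleaving sequence or to the top sequences, then scaled and log-transformed. The top set was 25 sequences, and the scaling was ×100 followed by log10.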

theophylline [3] = variants of: B1; assay: normalized RNA/DNA level without ligand (relative to sTRSVctl = 100) (log10 (% of sTRSVctl)); higher = less ribozyme self-cleavage, higher mRNA level; conditions: HEK293T, reporter: mCherry (pCS4076), ligand present: no
Method in brief: as §2

theophylline [4] = variants of: B1; assay: FACS-Seq fitted mean relative fluorescence mCherry/BFP with ligand (log10 relative fluorescence); ligand concentration (+) FACS-Seq: 1 mM; higher = higher reporter protein expression; conditions: HEK293T, ligand present: yes
Method in brief: as §1

Variant | FACS-Seq fitted mean (log10) (theophylline [1]) | normalized RNA/DNA level with ligand (log10) (theophylline [2]) | normalized RNA/DNA level without ligand (log10) (theophylline [3]) | FACS-Seq fitted mean (log10) (theophylline [4])
ACUUU | 0.872 ± 0.15 | 2.012 ± 0.0039 | 1.89 ± 0.022 | 0.813 ± 0.11
ACUUA | 0.5998 ± 0.0045 | 2.05 ± 0.037 | 1.78 ± 0.032 | 0.66 ± 0.015
ACGCU | 0.995 ± 0.016 | 2.08 ± 0.17 | 1.914 ± 0.019 | 1.01 ± 0.031
ACGCG | 1.002 ± 0.0074 | 2.009 ± 0.009 | 1.86 ± 0.036 | 1.09 ± 0.058
AGAAG | 0.448 ± 0.033 | 1.93 ± 0.025 | 1.61 ± 0.17 | 0.576 ± 0.014
AGAAA | -0.278 ± 0.17 | 1.853 ± 0.0095 | 1.12 ± 0.042 | 0.515 ± 0.022
AGAAC | 0.387 ± 0.005 | 1.9164 ± 0.00023 | 1.78 ± 0.12 | 0.507 ± 0.016
AGACA | 0.0301 ± 0.062 | 1.87 ± 0.04 | 1.72 ± 0.031 | 0.35727 ± 0.0003
AGACG | 0.74 ± 0.1 | 2.01 ± 0.082 | 1.89 ± 0.021 | 0.863 ± 0.018
ACGUA | 0.721 ± 0.11 | 2.011 ± 0.017 | 1.62 ± 0.19 | 0.9207 ± 0.0039
ACGUG | 0.7349 ± 0.0044 | 1.99 ± 0.14 | 1.76 ± 0.033 | 0.974 ± 0.16
ACGUC | 1.11 ± 0.098 | 1.99 ± 0.031 | 1.91 ± 0.038 | 1.1245 ± 0.0011
ACGUU | 0.575 ± 0.11 | 2.05 ± 0.044 | 1.79 ± 0.042 | 0.657 ± 0.051
ACUAG | 1.14 ± 0.18 | 2 ± 0.067 | 2.01 ± 0.043 | 1.08 ± 0.11
ACUAA | 0.266 ± 0.016 | 2.002 ± 0.01 | 1.65 ± 0.2 | 0.391 ± 0.0057
ACUAC | 0.929 ± 0.041 | 1.98 ± 0.093 | 1.98 ± 0.084 | 0.984 ± 0.13
ACUAU | 0.418 ± 0.065 | 1.982 ± 0.019 | 1.84 ± 0.13 | 0.461 ± 0.041
CCUCC | 0.993 ± 0.035 | 2.092 ± 0.0026 | 2.0411 ± 0.0014 | 0.89 ± 0.046
CCUCU | 0.198 ± 0.07 | 1.93 ± 0.039 | 1.87 ± 0.036 | 0.0585 ± 0.1
CGACU | 0.265 ± 0.1 | 2 ± 0.031 | 1.7 ± 0.14 | 0.5286 ± 0.0038
CGACA | 0.409 ± 0.006 | 2.012 ± 0.02 | 1.45 ± 0.061 | 0.769 ± 0.0091
UGAGC | 1.21 ± 0.082 | 1.9256 ± 8.8e-05 | 1.98 ± 0.13 | 1.24 ± 0.12
UGAGA | 0.307 ± 0.012 | 1.922 ± 0.0069 | 1.5 ± 0.13 | 0.709 ± 0.041
CCGUC | 0.556 ± 0.018 | 2.11 ± 0.037 | 1.93 ± 0.073 | 0.413 ± 0.034

Variant | FACS-Seq fitted mean (log10) (theophylline [1]) | normalized RNA/DNA level with ligand (log10) (theophylline [2]) | normalized RNA/DNA level without ligand (log10) (theophylline [3]) | FACS-Seq fitted mean (log10) (theophylline [4])
CCGUA | 0.864 ± 0.056 | 2 ± 0.099 | 1.65 ± 0.12 | 0.992 ± 0.043
UCUUG | 0.933 ± 0.1 | 1.94 ± 0.18 | 1.94 ± 0.037 | 1.01 ± 0.025
UCUUU | 0.989 ± 0.015 | 2.019 ± 0.0067 | 1.86 ± 0.14 | 1.04 ± 0.1
CCUAA | 0.523 ± 0.071 | 1.98 ± 0.04 | 1.71 ± 0.13 | 0.725 ± 0.073
CCUAU | 0.969 ± 0.015 | 2.06 ± 0.025 | 1.867 ± 0.0061 | 1.05 ± 0.031
CCUAC | 0.87 ± 0.071 | 2.01 ± 0.038 | 1.99 ± 0.072 | 0.871 ± 0.066
UCGGU | 0.776 ± 0.2 | 2.084 ± 0.0052 | 1.8 ± 0.16 | 0.68 ± 0.021
CCUUA | 0.654 ± 0.02 | 1.992 ± 0.0039 | 1.73 ± 0.1 | 0.707 ± 0.035
CCUUU | 0.664 ± 0.036 | 2.046 ± 0.019 | 1.85 ± 0.039 | 0.81 ± 0.074
UCGCU | 0.4314 ± 0.00049 | 2.03 ± 0.11 | 1.891 ± 0.0058 | 0.533 ± 0.055
UCGCC | 1.03 ± 0.1 | 2 ± 0.095 | 1.872 ± 0.014 | 1.06 ± 0.095
ACUCG | 1.06 ± 0.14 | 1.95 ± 0.2 | 1.89 ± 0.11 | 1.17 ± 0.035
ACUCA | 0.648 ± 0.038 | 1.97 ± 0.14 | 1.92 ± 0.076 | 0.659 ± 0.088
ACUCC | 0.767 ± 0.21 | 2 ± 0.068 | 1.96 ± 0.026 | 0.658 ± 0.024
ACUCU | -0.437 ± 0.075 | 2.01 ± 0.052 | 1.93 ± 0.075 | -0.125 ± 0.13
CGAGC | 0.548 ± 0.016 | 2.013 ± 0.0077 | 1.94 ± 0.042 | 0.508 ± 0.037
CGAGA | 0.788 ± 0.0071 | 1.93 ± 0.022 | 1.58 ± 0.18 | 0.841 ± 0.032
CGAAC | 0.992 ± 0.11 | 1.96 ± 0.076 | 1.72 ± 0.026 | 1.02 ± 0.089
CGAAA | 0.0755 ± 0.05 | 1.94 ± 0.023 | 1.31 ± 0.092 | 0.587 ± 0.042
CGAAU | 0.071 ± 0.019 | 1.929 ± 0.0065 | 1.43 ± 0.076 | 0.306 ± 0.0069
UGAAC | 1.07 ± 0.11 | 1.97 ± 0.06 | 1.84 ± 0.036 | 0.983 ± 0.022
UGAAU | 0.471 ± 0.056 | 1.94 ± 0.057 | 1.77 ± 0.15 | 0.732 ± 0.045
CCUGC | 0.976 ± 0.012 | 2.02 ± 0.034 | 2.09 ± 0.054 | 0.899 ± 0.054
CCUGA | 0.9447 ± 0.0047 | 2.02 ± 0.028 | 1.92 ± 0.16 | 0.904 ± 0.0082

Variant | FACS-Seq fitted mean (log10) (theophylline [1]) | normalized RNA/DNA level with ligand (log10) (theophylline [2]) | normalized RNA/DNA level without ligand (log10) (theophylline [3]) | FACS-Seq fitted mean (log10) (theophylline [4])
ACUGC | 0.883 ± 0.038 | 2.01 ± 0.031 | 1.95 ± 0.058 | 0.793 ± 0.067
ACUGA | 0.423 ± 0.012 | 1.96 ± 0.19 | 1.68 ± 0.18 | 0.613 ± 0.023
ACUGU | 0.698 ± 0.1 | 2.027 ± 0.011 | 1.89 ± 0.087 | 0.626 ± 0.07
ACUGG | 1 ± 0.065 | 2.05 ± 0.12 | 1.91 ± 0.091 | 0.915 ± 0.066
CCGCU | 0.291 ± 0.035 | 2.09 ± 0.012 | 1.81 ± 0.024 | 0.381 ± 0.0062
CCGCC | 1.17 ± 0.096 | 2.0217 ± 0.0019 | 1.96 ± 0.033 | 1.18 ± 0.036
CCGGC | 0.695 ± 0.065 | 2 ± 0.13 | 1.97 ± 0.044 | 0.721 ± 0.011
CCGGA | 0.978 ± 0.089 | 2.08 ± 0.027 | 1.9 ± 0.044 | 1.05 ± 0.15
CCGGU | 0.937 ± 0.27 | 1.97 ± 0.064 | 1.84 ± 0.064 | 0.944 ± 0.14
UCUAA | 0.476 ± 0.055 | 2.03 ± 0.14 | 1.68 ± 0.095 | 0.588 ± 0.039
UCUAU | 0.822 ± 0.091 | 2.051 ± 0.0076 | 1.867 ± 0.015 | 0.994 ± 0.05
UCUGA | 0.9 ± 0.11 | 2.04 ± 0.035 | 1.89 ± 0.056 | 0.983 ± 0.1
UCUGU | 0.6475 ± 0.0019 | 2.099 ± 0.014 | 2.01 ± 0.1 | 0.6442 ± 0.0018
UCUGC | 0.365 ± 0.16 | 1.98 ± 0.096 | 2.02 ± 0.032 | 0.642 ± 0.034
UCUGG | 0.976 ± 0.062 | 2.057 ± 0.0087 | 2.01 ± 0.064 | 1.012 ± 0.0062
UCUCC | 0.732 ± 0.037 | 1.93 ± 0.04 | 1.95 ± 0.023 | 0.7862 ± 0.0054
ACGGA | 0.425 ± 0.14 | 1.95 ± 0.02 | 1.66 ± 0.073 | 0.602 ± 0.1
ACGGC | 1.25 ± 0.15 | 1.97 ± 0.059 | 1.97 ± 0.067 | 1.17 ± 0.014
ACGGU | 0.778 ± 0.062 | 1.89 ± 0.13 | 1.7 ± 0.095 | 1.004 ± 0.0021
AGAGA | 0.056 ± 0.00013 | 1.952 ± 0.0099 | 1.28 ± 0.092 | 0.603 ± 0.011
AGAGC | 0.629 ± 0.05 | 1.89 ± 0.12 | 1.81 ± 0.027 | 0.813 ± 0.051
UGACG | 0.444 ± 0.13 | 1.977 ± 0.0053 | 1.89 ± 0.031 | 0.53 ± 0.076
UGACA | 0.298 ± 0.03 | 1.93 ± 0.051 | 1.52 ± 0.048 | 0.527 ± 0.05
UGACU | 1.21 ± 0.077 | 1.9948 ± 0.0009 | 1.87 ± 0.022 | 1.22 ± 0.12
